In patent US20220259593A1, “CONTROL OF MAMMALIAN GENE DOSAGE USING CRISPR” (The Regents of the University of California, priority 2019, published 2022):

Test system: K562 CRISPRi cells
Test: Constant region variant library pooled growth screen, K562
Format: cell-based, human
Settings: sgRNA constant region variants
Source text: We calculated relative activities for each targeting sequence:constant region pair by normalizing its phenotype to that of the targeting sequence paired with the unmodified constant region, identifying 409 constant region variants that on average conferred intermediate activity (0.1-0.9, FIG. 5B). Ten variants selected for individual evaluation also mediated intermediate levels of mRNA knockdown (FIG. 6B). Mapping the activities of constant region variants with single base substitutions onto the structure recapitulated known relationships between constant region structure and function (FIG. 5C).
The sequences in the library of modified constant regions were derived from the sgRNA (F+E) optimized sequence (23) modified to include a BlpI site (15). Each modified constant region was paired with 36 sgRNA targeting sequences (3 sgRNAs targeting each of 10 essential genes and six non-targeting negative control sgRNAs). The cloning strategy (described below) allowed the mutation of most positions in the sgRNA constant region. A variety of modifications were made, including substitutions of all single bases not in the BlpI restriction site (which is used for cloning), double substitutions including all substitutions at base-paired position pairs not before or in the BlpI site, and a variety of triple, quadruple, and sextuple substitutions, including base-pair-preserving substitutions at adjacent base-pairs.
The library was ordered and cloned in two parts. One part consisted of ˜100 modifications to the eight bases upstream of the BlpI restriction site. Constant region variants with mutations in this section were paired with each of the 36 targeting sequences, ordered as a pooled oligonucleotide library (Twist Biosciences), and cloned into pCRISPRia-v2 as described above. The second part consisted of ˜900 modifications to the 71 bases downstream of the BlpI restriction site. This part was cloned in two steps. First, all 36 targeting sequences were individually cloned into pCRISPRia-v2 as described above. The vectors were then pooled at an equimolar ratio and digested with BlpI (NEB) and XhoI (NEB). The modified constant region variants were ordered as a pooled oligonucleotide library (Twist Biosciences), PCR amplified with Phusion polymerase (NEB), digested with BlpI (NEB) and XhoI (NEB), and ligated into the digested vector pool, in a manner identical to previously published protocols and as described above, except for the different restriction enzymes.
Screens with the compact mismatched sgRNA library and the constant region library were conducted largely as described above, with smaller modifications during the screening procedure and an updated sequencing library preparation protocol. Briefly, the libraries were transduced in duplicate into K562 CRISPRi (both libraries) or HeLa CRISPRi cells (compact mismatched sgRNA library) as described above. K562 replicates were maintained separately in 0.15 to 0.3 L of RPMI-1640 in 0.3 L spinner flasks for the course of the screen. HeLa replicates were maintained in sets of ten 15-cm plates. Cells were selected with puromycin as described above (K562: 1 day of 0.75 μg/mL and 1 day of 0.85 μg/mL; HeLa: 2 days of 0.8 μg/mL and 1 day of 1 μg/mL). The remainder of the screen was carried out at >1000× library coverage (K562 compact mismatched sgRNA library: >2000×; HeLa compact mismatched sgRNA library: >1000×; K562 constant region library: >2000×). Multiple samples were harvested after 4 to 8 days of growth. For the drug screen, 10 μM lovastatin (ApexBio) or an equivalent volume of DMSO (vehicle) was added to flasks at t=0, and 3 days later cells were pelleted and re-suspended in fresh medium. Lovastatin (12 μM) or DMSO was again added after 5 and 9 days of growth, with media exchanges 3 days after drug supplementation. Multiple samples were harvested after 4 to 8 days for the K562 and HeLa growth screens. […]

[1] = activity relative to the un-modified constant region cr995
[2] = activity relative to the original, un-modified constant region cr995

Row | Molecule | Mean relative activity [1] | Mean relative activity [2]
1 | cr387 (nucleic acid, listed as DNA, chemistry not fully specified) guide: GTTTAAGAGCTAAGCTGGAAACAGCATAGCAAGTTTAAATAAGGCTCGTCCGTTATCAACTTGAAAAAGTGGCACCGAGTCGGTGCT | 0.9094 | 
2 | cr503 (nucleic acid, listed as DNA, chemistry not fully specified) guide: GTTTAAGAGCTAAGCTGGAAACAGCATAGCAAGTTTAAATAAGGCTAGTCCGTTATCAACTTGAAAAAGTGGCACCGAGTCGGGGCT | 0.9079 | 
3 | cr909 (nucleic acid, listed as DNA, chemistry not fully specified) guide: GTTTAAGAGCTAAGCTGGAAACAGCATATCAAGTTTAAATAAGGCTAGTCCGTGATCAACTTGTAAAAGTGGCACCGAGTCGGTGCT |  | 0.8864
4 | cr702 (nucleic acid, listed as DNA, chemistry not fully specified) guide: GTTTAAGAGCTAAGCTGGAAACAGCATAGCAAGTTTAAATAAGGCTAGTCCGTTATCAACTTGAAAAAGTGCCACCGAGTCGGTGCT |  | 0.8977
5 | cr520 (nucleic acid, listed as DNA, chemistry not fully specified) guide: GTTTAAGAGCTAAGCTGGAAACAGCATAGCAAGTTTAAATAAGGCTAGTCCGATATCAACTTGCAAAAGTGGCACCGAGTCGGTGCT |  | 0.8874
6 | cr806 (nucleic acid, listed as DNA, chemistry not fully specified) guide: GTTTAAGAGCTAAGCTGGAAACAGCATAGCAAGTTTAAATAGGGCTAGTCCGTTATCAACTTGAAAAAGTGGCACCGAGTCGGTGCT |  | 0.8861
7 | cr358 (nucleic acid, listed as DNA, chemistry not fully specified) guide: GTTTAAGAGCTAAGCTGGAAACAGCATAGCAAGTTTAAATAAGGTTAATCCGTTATCAAGTTGAAAAACTGGCACTGAGTCAGTGCT |  | 0.886
8 | cr256 (nucleic acid, listed as DNA, chemistry not fully specified) guide: GTTTAAGAGCTAAGCTGGAAACAGCATAACAAGTTTAAATAAGGCTAGTCCGTTATCAACTTGAAAAAGTGGCACCGAGTCGGTGCT | 0.9023 | 
9 | cr626 (nucleic acid, listed as DNA, chemistry not fully specified) guide: GTTTAAGAGCTAAGCTGGAAACAGCATAGCAAGTTTAAATAAGGCTAGTCCGTTATCAACTTGACAAAGTGGCACCGCGTCGGTGCT | 0.9006 | 
10 | cr984 (nucleic acid, listed as DNA, chemistry not fully specified) guide: GTTTAAGAGCTAAGCTGGAAACAGCATAGCAAGTTTAAATAAGGCTAGTCCGTTATCAACTTGAAAAAGTGGCACCGAGTCGGTGGT |  | 0.8858
11 | cr705 (nucleic acid, listed as DNA, chemistry not fully specified) guide: GTTTAAGAGCTAAGCTGGAAACAGCATAGCAAGTTTAAATAAGGCTAGTCCGTTATCAACTTGAAAAAGTGGCACGGAGTCCGTGCT |  | 0.8901
12 | cr863 (nucleic acid, listed as DNA, chemistry not fully specified) guide: GTTTAAGAGCTAAGCTGGAAACCGCATAGCAAGTTTAAATAAGGCTAGTCCGTTATCAACTTGAAAAAGTGGCACCGAGTCGGTGCT | 0.9031 | 
13 | cr206 (nucleic acid, listed as DNA, chemistry not fully specified) guide: GTTTAAGAGCTAAGCTGGAAACAGCATAGCAAGTTTAAATAAGGCTAGTCCGTTATCAACCTGAAAAAGTGGCACCGACTCGGTGCT |  | 0.8946
14 | cr402 (nucleic acid, listed as DNA, chemistry not fully specified) guide: GTTTAAGAGCTAAGCTGGAAACTGCATAGCAAGTTTAAATAAGGCTAGTCCGTTATCAACTTGAAAAAGTGGCACCGAGTCGGTGCT |  | 0.8977
15 | cr141 (nucleic acid, listed as DNA, chemistry not fully specified) guide: GTTTAAGAGCTAAGCTGGAAACAGCATAGCAAGTTTAAATAAGGCCAGTCCGTTATCAACTTGAGAAAGTGGCACCGAGTCGGTGCT | 0.9018 | 
16 | cr869 (nucleic acid, listed as DNA, chemistry not fully specified) guide: GTTTAAGAGCTAAGCTGGAAACAGCATAGCAAGTTTAAATAAGGCTAGTCCGTTATCAACTTGAAAAAGAGGCACCGAGTCGGTGCT |  | 0.8861
17 | cr414 (nucleic acid, listed as DNA, chemistry not fully specified) guide: GTTTAAGAGCTAAGCTGGAAACAGCATAGCAAGTTTAAATAAGGCTAGTCCGTTATCAACTTGAAAAAGTGGCTCCGAGTCGGTGCT |  | 0.8852
18 | cr123 (nucleic acid, listed as DNA, chemistry not fully specified) guide: GTTTAAGAGCTAAGCTGGAAACAGCATAGCAAGTTTAAATAAGGCTAGTCCGTTATCAACGTGAAAAAGTGGCACCGAGTCGGTGCT |  | 0.8871
19 | cr488 (nucleic acid, listed as DNA, chemistry not fully specified) guide: GTTTAAGAGCTAAGCTGGAAACAGCATAGCAAGTTTAAATAAGGCTAGTCCGTTATCAACTTGAAAAAGTGGGACCGAGTCGGTCCT |  | 1.06
20 | cr777 (nucleic acid, listed as DNA, chemistry not fully specified) guide: GTTTAAGAGCTAAGCTGGAAACAGCATAGCAAGTTTAAATAAGGCTAGTCCGGTATCAACTTGAAAAAGTGGCACCGAGTCGGTGCT | 0.9022 | 
21 | cr694 (nucleic acid, listed as DNA, chemistry not fully specified) guide: GTTTAAGAGCTAAGCTGGAAACAGCATAGCAAGTTTAAATAAGGCTAGTCCGGTATCAACTTGTAAAAGTGGCACCGAGTCGGTGCT |  | 0.8963
22 | cr749 (nucleic acid, listed as DNA, chemistry not fully specified) guide: GTTTAAGAGCTAAGCTGGAAACAGCATAGCGAGTTTAAATAAGGCTAGTCCGTCATCAACTTGAAAAAGTGGCACCGCGTCGGTGCT |  | 0.8857
23 | cr013 (nucleic acid, listed as DNA, chemistry not fully specified) guide: GTTTGAGAGCTAAGCTGGAAACAGCATAGCAAGTTTAAATAAGGCTAGTCCGTTATCAACTTGAAAAAGTGGCACCGAGTCGGTGCT |  | 0.8907
24 | cr367 (nucleic acid, listed as DNA, chemistry not fully specified) guide: GTTTAAGAGCTAAGCTGGAAACAGCATAGCAAGTTTAAATAAGACTAGTTCGTTATCAACTCGAAAGAGTGGTACCGAGTCGGTACT | 0.8998 | 
